Patent publication US20220380463A1 (Adimab, published 2022)
Numbering of substitutions follows the chain as printed.

T1: Cynomolgus CD3εδ Fc heterodimer (Cy CD3ε Fc / CD3δ Fc-HIS) (cynomolgus, UniProt Q95LI8 22-100)
T1 chain 1: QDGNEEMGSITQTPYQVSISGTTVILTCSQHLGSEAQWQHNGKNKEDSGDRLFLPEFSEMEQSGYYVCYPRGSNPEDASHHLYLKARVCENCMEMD
T1 chain 2: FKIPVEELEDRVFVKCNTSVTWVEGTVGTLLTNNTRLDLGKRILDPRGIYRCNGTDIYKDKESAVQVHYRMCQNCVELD

B1: SAD10320_P04_A11 (ADI-57386) (antibody, V domains shown)
VH: QVQLVQSGAEVKKPGASVKVSCKASGFNIKDYYMHWVRQAPGQRLQWMGWIDLENANTIYDAKFQGRVTITRDTSASTAYMELSSLRSEDTAVYYCARDARHRYFYDVWGQGTLVTVSS
VL: DIVMTQSPDSLAVSLGERATINCKSSQSLLNARTGKNYLAWYQQKPGQPPKLLIYWASTRESGVPDRFSGSGSGTDFTLTISSLQAEDVAVYYCKQSYSHGTFGGGTKVEIK
notes: IgG; also called Ab109
B2: SAD10320_P04_E11 (ADI-57388) (antibody, V domains shown)
VH: B1 VH with Q46E, R101Y, H102G, R103H, Y104D
VL: B1 VL with S99G, G101R
notes: IgG; also called Ab111
B3: SAD10319_P06_A10 (ADI-57419) (antibody, V domains shown)
VH: QVQLVQSGAEVKKPGASVKVSCKASGYTFTGYEMHWVRQAPGQRLEWMGWINPVTGATAYSQKFQGRVTITRDTSASTAYMELSSLRSEDTAVYYCARDAYGHYFYDHWGQGTLVTVSS
VL: B1 VL with H100R, G101R
notes: IgG; also called Ab148
B4: SAD10319_P05_F01 (ADI-57412) (antibody, V domains shown)
VH: QVQLVQSGAEVKKPGASVKVSCKASGYTFTDDAMHWVRQAPGQSLEWMGWIDAGTGNTYYSQKFQGRVTITRDTSASTAYMELSSLRSEDTAVYYCAHDAYGHYFYDVWGQGTLVTVSS
VL: B1 VL with H100R, G101R
notes: IgG; also called Ab140
B5: SAD10319_P05_C03 (ADI-57404) (antibody, V domains shown)
VH: B4 VH with D31S, D32Y, A33N, S44R, W50S, N57A, Y59D, H98R, G102H
VL: B1 VL with H100R, G101R
notes: IgG; also called Ab131
B6: SAD10319_P05_D03 (ADI-57408) (antibody, V domains shown)
VH: B4 VH with Q43H, S44R
VL: B1 VL with H100R, G101R
notes: IgG; also called Ab135
B7: SAD10319_P05_A05 (ADI-57398) (antibody, V domains shown)
VH: B3 VH with G31A, E33T, V54D, A59D, G102H, H108V
VL: B1 VL with H100R, G101R
notes: IgG; also called Ab124
B8: SAD10320_P04_G11 (ADI-57390) (antibody, V domains shown)
VH: B1 VH with Q46E, R101Y, H102R, R103H, Y104E
VL: B1 VL with S99Y, G101R
notes: IgG; also called Ab115
B9: SAD10319_P05_D01 (ADI-57406) (antibody, V domains shown)
VH: B3 VH with G31E, E33D, R44T, N52D, P53A, V54G, A59V, H103R
VL: B1 VL with H100R, G101R
notes: IgG; also called Ab133
B10: SAD10319_P05_E04 (ADI-57411) (antibody, V domains shown)
VH: B3 VH with V54S, A57N, A59V, A100H, H108V
VL: B1 VL with H100R, G101R
notes: IgG; also called Ab139
B11: SAD10319_P06_E10 (ADI-57428) (antibody, V domains shown)
VH: B4 VH with D31Q, D32Y, A33D, S44T, W50D, D52N, N57V, Y59V, H98R, H103R
VL: B1 VL with H100R, G101R
notes: IgG; also called Ab157
B12: SAD10319_P05_G02 (ADI-57414) (antibody, V domains shown)
VH: B3 VH with G31T, E33A, N52D, A57N, A59K, A100H, H103R
VL: B1 VL with H100R, G101R
notes: IgG; also called Ab142
B13: SAD10320_P04_F11 (ADI-57389) (antibody, V domains shown)
VH: B1 VH with Q46E, R101Y, H102G, R103H, Y104E
VL: B1 VL with S97G, Y98H, H100R, G101R
notes: IgG; also called Ab112
B14: SAD10319_P05_D02 (ADI-57407) (antibody, V domains shown)
VH: QVQLVQSGAEVKKPGASVKVSCKASGYTFDSYTMHWVRQAPGPRLEWMGSINAGTGNTDYSQKFQGRVTITRDTSASTAYMELSSLRSEDTAVYYCARDHYGHYFYDVWGQGTLVTVSS
VL: B1 VL with H100R, G101R
notes: IgG; also called Ab134
B15: SAD10319_P05_A01 (ADI-57395) (antibody, V domains shown)
VH: B3 VH with G31A, E33T, Q43H, V54D, A59D, G102H, H108V
VL: B1 VL with H100R, G101R
notes: IgG; also called Ab121
B16: SAD10319_P06_F07 (ADI-57429) (antibody, V domains shown)
VH: B4 VH with T30E, D31S, D32Y, A33D, S44P, N57A, Y59T, H98R, G102H
VL: B1 VL with H100R, G101R
notes: IgG; also called Ab159
B17: SAD10319_P05_D04 (ADI-57409) (antibody, V domains shown)
VH: B4 VH with D31S, A33Y, S44R, D52N, N57A, Y59D, H103R, F105H
VL: B1 VL with H100R, G101R
notes: IgG; also called Ab137
B18: SAD10319_P06_C12 (ADI-57424) (antibody, V domains shown)
VH: B14 VH with T33E, P43H, S50W, A53P, G54L, N57A, D59K
VL: B1 VL with H100R, G101R
notes: IgG; also called Ab153
B19: SAD10319_P06_B11 (ADI-57422) (antibody, V domains shown)
VH: B14 VH with D30H, T33D, P43Q, S50W, N52D, N57A, D59T, H100A
VL: B1 VL with H100R, G101R
notes: IgG; also called Ab151
B20: SAD10319_P05_A02 (ADI-57396) (antibody, V domains shown)
VH: B3 VH with T30A, G31S, E33D, N52D, P53A, V54G, A59V
VL: B1 VL with H100R, G101R
notes: IgG; also called Ab122
B21: SAD10319_P06_F10 (ADI-57430) (antibody, V domains shown)
VH: B14 VH with D30V, T33D, R44S, S50W, N52D, A53P, G54N, N57A, D59V
VL: B1 VL with H100R, G101R
notes: IgG; also called Ab160
B22: SAD10319_P05_G04 (ADI-57416) (antibody, V domains shown)
VH: B3 VH with G31S, E33G, N52D, A59D, Y101H, H103R
VL: B1 VL with H100R, G101R
notes: IgG; also called Ab144

Biological target: T1, Cynomolgus CD3εδ Fc heterodimer (Cy …)
Experiment: BLI (Octet), IgG on AHC sensor, pH 6.0

Row | koff | Binder
1 | 0.00741 s⁻¹ | B1
2 | 0.00297 s⁻¹ | B2
3 | 0.0246 s⁻¹ | B3
4 | 0.0214 s⁻¹ | B4
5 | 0.00327 s⁻¹ | B5
6 | 0.0233 s⁻¹ | B6
7 | 0.0118 s⁻¹ | B7
8 | 0.00276 s⁻¹ | B8
9 | 0.00929 s⁻¹ | B9
10 | 0.00373 s⁻¹ | B10
11 | 0.00575 s⁻¹ | B11
12 | 0.0156 s⁻¹ | B12
13 | 0.00192 s⁻¹ | B13
14 | 0.0241 s⁻¹ | B14
15 | 0.0251 s⁻¹ | B15
16 | 0.0251 s⁻¹ | B16
17 | 0.022 s⁻¹ | B17
18 | 0.00756 s⁻¹ | B18
19 | 0.0101 s⁻¹ | B19
20 | 0.0246 s⁻¹ | B20
21 | 0.00663 s⁻¹ | B21
22 | 0.00389 s⁻¹ | B22
